Experimental data: US20250262297A1, “ALLERGY ANTIGEN AND EPITOPE THEREOF” (HOYU CO., LTD., priority 2017, published 2025)
Each block holds one molecule with its values, some of them ahead of it.

Tested on: IgE antibodies from soybean-allergic patients
Assay: Immunoblotting of two-dimensional electrophoresis pattern of soybean proteins with patient serum
Format: binding, human
Settings: spot in 2D electrophoresis gel of soybean proteins; patient serum compared with healthy subject serum
Excerpt: Transfer to membrane was done using the following transfer system and transfer buffer. • Transfer system: XCell SureLock Mini-Cell and XCell II Blot Module (produced by Life Technologies) • Transfer buffer: NuPAGE Transfer Buffer (X20) (produced by Life Technologies), used in a form diluted 20-fold with milliQ water.
To be specific, proteins in the two-dimensional electrophoresis gels were transferred to a membrane (PVDF membrane) according to the following procedure. • (1) The PVDF membrane was immersed in 100% methanol followed by milliQ water, and then moved into the transfer buffer to hydrophilize the PVDF membrane. • (2) After sponge, filter paper, the gels treated by second-dimensional SDS-PAGE, the hydrophilized PVDF membrane, filter paper, and sponge were put in place in this order, the transfer system was energized at a constant voltage of 30 V for one hour.
Immunoblotting of the membrane was carried out using, as a primary antibody, a serum sample from a patient with a soybean allergy or a serum sample from a healthy subject.
Immunoblotting of the membrane was carried out according to the following procedure. • (1) The transferred membrane was shaken in a 5% skim milk/PBST solution (a PBS buffer containing 0.3% Tween 20 nonionic surfactant) at room temperature for one hour. • (2) The membrane was left to stand in a solution of 3% primary antibody serum in 5% skim milk/PBST at room temperature for one hour. • (3) The membrane was washed with a PBST solution (5 min.×3 times). • (4) The membrane was left to stand in a 1:2500 dilution of the secondary antibody, anti-human IgE-HRP (horseradish peroxidase), with a 3% skim milk/PBST solution at room temperature for one hour. • (5) The membrane was washed with a PBST solution (5 min.×3 times). • (6) The membrane was left to stand in Pierce Western Blotting Substrate Plus (produced by Thermo Fisher Scientific) for 5 minutes.
The membrane obtained through the foregoing series of treatments was subjected to fluorescent image scanning on Typhoon 9400 (produced by GE).
The immunoblots obtained with the serum from the soybean-allergic patient were compared with those obtained with the control serum from the healthy subject.

B1: 14-3-3-like protein (protein)
chain: MAAAPSPREENVYMAKLAEQAERYEEMVEFMEKVSAAADNEELTVEERNLLSVAYKNVIGARRASWRIISSIEQKEESRGNEDHVSVIRDYRSKIESELSNICDGILKLLDSRLIPSASSGDSKVFYLKMKGDYHRYLAEFKTGAERKEAAESTLSAYKAAQDIANAELPPTHPIRLGLALNFSVFYYEILNSPDRACNLAKQAFDEAIAELDTLGEESYKDSTLIMQLLRDNLTLWTSDMQDDGADEIKEAAPKPDDQ
specific binding to IgE antibodies from soybean-allergic patients: specific binding

B2: probable fructokinase-4 (protein)
chain: MALNNGVPATGTGLIVSFGEMLIDFVPTVSGVSLAEAPGFLKAPGGAPANVAIAVSRLGGKAAFVGKLGDDEFGHMLAGILKENGVRADGINFDQGARTALAFVTLRADGEREFMFYRNPSADMLLKPEELNLELIRSAKVFHYGSISLIVEPCRSAHLKAMEVAKESGCLLSYDPNLRLPLWPSAEEARKQILSIWEKADLIKVSDAELEFLTGSDKIDDESALSLWHPNLKLLLVTLGEHGSRYYTKSFKGSVDAFHVNTVDTTGAGDSFVGALLAKIVDDQSILEDEPRLREVLKFANACGAITTTQKGAIPALPKEEAALKLIKGGS
specific binding to IgE antibodies from soybean-allergic patients: specific binding

B3: triosephosphate isomerase isoform X1 (protein)
chain: MGRKFFVGGNWKCNGTTEEVKKIVTTLNEAKVPGEDVVEVVVSPPFVFLPFVKSLLRPDFHVSAQNCWVRKGGAYTGEVSAEMLVNLGIPWVIIGHSERRQLLNESNEFVGDKVAYALQQGLKVIACIGETLEQREAGTTTAVVAEQTKAIAAKISNWDNVVLAYEPVWAIGTGKVATPAQAQEVHADLRKWVHDNVSAEVAASVRIIYGGSVNGGNCKELAAQPDVDGFLVGGASLKAEFVDIINAATVKKN
modifications: Glycine max
notes: spot also identified as triosephosphate isomerase, cytosolic
specific binding to IgE antibodies from soybean-allergic patients: specific binding

B7: aconitate hydratase 1 (protein)
chain: MATENPFNSILTTLEKPGGAGEFGKYFSLPALNDRRIDRLPYSVRILLESAIRNCDEFQVKSNDVEKIIDWENTSPKLVEIPFKPARVLLQDFTGVPAVVDLACMRDAMNKLGGDSNKINPLVPVDLVIDHSVQVDVARSENAVQANMELEFQRNKERFGFLKWGSNAFNNMLVVPPGSGIVHQVNLEYLGRVVFNTNGVLYPDSVVGTDSHTTMIDGLGVAGWGVGGIEAEAAMLGQPMSMVLPGVVGFKLLGKLRDGVTATDLVLTVTQMLRKHGVVGKFVEFYGEGMSELSLADRATIANMSPEYGATMGFFPVDHVTLQYLRLTGRSDETVSMIESYLRANKMFVDYSEPQVERVYSSYLELNLEDVEPCVSGPKRPHDRVPLREMKVDWHACLNNKVGFKGFAVPKESQNKVAEFTFQGTPAHLRHGDVVIAAITSCTNTSNPSVMLGAALVAKKACELGLQVKPWIKTSLAPGSGVVTKYLQRSGLQKYLNELGFNIVGYGCTTCIGNSGDINEAVASAITENDIVAAAVLSGNRNFEGRVHPLTRANYLASPPLVVAYALAGTVDIDFDTEPIGIGKDGTKIFFRDIWPSSEEIANVVQSSVLPAMFRDTYNAITQGNPMWNNLSVPTGTLYAWDPTSTYIHEPPYFRDMSMSPPGSHGVKDAYCLLNFGDSITTDHISPAGSIHKDSPAARYLIERGVDRRDFNSYGSRRGNDEVMARGTFANIRIVNKFLNGEVGPKTIHIPSGEKLSVFDAAEKYKSEGHDMIILAGAEYGSGSSRDWAAKGPMLLGVKAVIAKSFERIHRSNLVGMGIIPLCFKPGDDADSLGLTGHERYTIDLPSNVNEIRPGQDVTVVTDAGKSFVSTLRFDTEVELAYFNHGGILQYVIRNMVNAKH
modifications: Glycine max
specific binding to IgE antibodies from soybean-allergic patients: specific binding

B8: transketolase, chloroplastic (protein)
chain: MASSTSSISLSQALLRPTTTSLPSSSSSLRLTPTLRPTPPALSLRRRLTTSIRAAASVKTVEKATADAALVEKSVNTIRFLAIDAVEKANSGHPGLPMGCAPMGHVLYDETMKYNPKNPFWFNRDRFVLSAGHGCMLQYALLHLAGFDSVKEEDLREFRQWGSRTPGHPENFETPGIEVTTGPLGQGIANAVGLALAEKHLAARYNKPDNEIVDHYTYAILGDGCQMEGIANEACSLAGHWGLGKLIAFYDDNHISIDGNTEIAFTESVDSRFEGLGWHVIWVKNGNNGYDDIRAAIKEAKAVKDKPTLIKVTTTIGYGSPNKANSYSVHGSALGAKEVDATRQNLGWSHEPFHVPEDVKKHWSRHTPEGAALEAEWNAKFAEYEKKYKEEAAELKSIINGEFPAGWEKALPTYTPESPADATRNLSQTNLNALAKVLPGLLGGSADLASSNMTLLKMFGDFQKDTPAERNVRFGVREHGMGAICNGIALHSPGLIPYCATFFVFTDYMRGAIRLSALSEAGVIYVMTHDSIGLGEDGPTHQPIEHLASFRAMPNILMLRPADGNETAGAYKVAVLNRKRPSILALSRQKLPQLPGTSIEGVEKGGYTISDNSTGNKPDVILIGTGSELEIAAKAADDLRKEGKAVRVVSLVSWELFDEQSEAYKESVFPAAVSARVSIEAGSTFGWEKIVGAKGKAIGIDRFGASAPAGRIYKEFGITKEAVVAAAKELI
specific binding to IgE antibodies from soybean-allergic patients: specific binding

Continued, values first:

specific binding to IgE antibodies from soybean-allergic patients: specific binding
B4: superoxide dismutase [Fe], chloroplastic isoform X1 (protein)
chain: MASLGGLQNVSGINFLIKEKGCCMLQGPKVNAKFELKPPPYPLNGLEPVMSQQTLEFHWGKHHKTYVENLKKQVVGTELDGKSLEEIIVTSYNKGDILPAFNNAAQVWNHDFFWECMKPGGGGKPSGELLELIERDFGSFVKFLDEFKAAAATQFGSGWAWLAYRARKFDGENVANPPSPDEDNKLVVLKSPNAVNPLVWGGYYPLLTIDVWEHAYYLDFQNRRPDYISVFMDKLVSWDAVSSRLEQAKALITSA
modifications: Glycine max
notes: spot also identified as iron-superoxide dismutase

specific binding to IgE antibodies from soybean-allergic patients: specific binding
B5: 51 kDa seed maturation protein precursor (protein)
chain: MASKVVSVLVIAMMLFAMNCNCTSVGHMPSTKEEGHDFQESKAKTTQTANKAMETGKEGQEAAESWTEWAKEKLSEGLGFKHDQESKESTTNKVSDYATDTAQKSKDYATDTAQKSKDYAGDAAQKSKDYAGDAAQKTKDYASDTAQTSKDYAGDAAQKSKGYVGDAAQKTKEYVGDAAQKTKDYATDAAQKTKDYATQKTKDYASDATDAAKKTKDYAAQKTKDYASEASDVAQNTKDYAAQKTKDYASGGAQKTKDYASGGAQKTKDYASDAAQKTKDYASDGAQKSKEYAGDVALNAKDYAQKSKDYAGDAAQNVKDYASDAVQKRKEYSGDASHKSKEASDYASETAKKTKDYVGDAAQRSKGAAEYASDAAQRTKEYAGDATKRSKEASNDHANDMAQKTKDYASDTAQRTKEKLQDIASEAGQYSAEKAREMKDAAAEKASDIAKAAKQKSQEVKEKLGGQHRDAEL
modifications: Glycine max
notes: spot also identified as Lea protein precursor

specific binding to IgE antibodies from soybean-allergic patients: specific binding
B6: alpha-1,4 glucan phosphorylase L isozyme, chloroplastic/amyloplastic (protein)
chain: MASSSTTMRFSAASTGAAAALPRRSSVAGFIGVAARSSAKSRLRFIGRNANLSLRMRRMSSFSVVKCVSGSEAKVQDTVAKQQEATTSLSSFTPDASSIASSIKYHAEFTPLFSPENFDLPQAFLATAQSVRDSLIINWNATYDYYEKLNVKQAYYLSMEFLQGRALLNAIGNLELTGPYAEALSKLGHKLENVAYQEPDAALGNGGLGRLASCFLDSLATLNYPAWGYGLRYKYGLFKQRITKDGQEEVAEDWLEMGNPWEIIRNDVSYPVKFYGKVVSGSDGKKHWIGGEDIKAVAHDVPIPGYKTKTTINLRLWSTKAASEEFDLSAFNAGRHTEASEALANAEKICYILYPGDEPIEGKILRLKQQYTLCSASLQDIIARFERRSGANVNWEEFPEKVAVQMNDTHPTLCIPELMRILIDVKGLNWKDAWNITQRTVAYTNHTVLPEALEKWSLDLMQKLLPRHIEIIEMIDEELVRTIIAEYGTENSDLLEKKLKEMRILENVELTAEFADILVKSKEAIDIPSEELQSSEQAEAEDEKDDDEVEAVAKKNGTDESSIEDEKEELPEPVPEPPKLVRMANLCVVGGHAVNGVAEIHSEIVKDDVFNAFYKLWPEKFQNKTNGVTPRRWIRFCNPDLSKIITEWIGTEDWVLNTGKLAELRKFVDNEDLQVQWREAKRSNKVKVAAFIREKTGYSVSPDAMFDIQVKRIHEYKRQLMNIFGIVYRYKKMKEMSAAEREANFVPRVCIFGGKAFATYVQAKRIVKFITDVGATVNHDPEIGDLLKVVFVPDYNVSVAEMLIPASELSQHISTAGMEASGTSNMKFAMNGCILIGTLDGANVEIREEVGADNFFLFGAKAHEIAGLRKERAEGKFVPDPRFEEVKEFVRSGIFGSYNYDELMGSLEGNEGFGRADYFLVGKDFPSYIECQEKVDEAYRDQTKWTRMSILNTAGSYKFSSDRTIHEYAREIWNIEPVQLP
